Consider nine molecules from US20090226437A1 (Genentech, published 2009).

Test [1] addresses alphaEbeta7 on alphaEbeta7-transfected 293 cells (human) (UniProt P38570). The experiment in a line: cell adhesion inhibition, alphaEbeta7 293 cells on coated huE-Cadherin, experiment 1 of 3.
Test [2] has the same target. In words: cell adhesion inhibition, alphaEbeta7 293 cells on coated huE-Cadherin, experiment 2 of 3.
Test [3] has the same target. In words: cell adhesion inhibition, alphaEbeta7 293 cells on coated huE-Cadherin, experiment 3 of 3.
In test [4] the target is T1, Full length human integrin alpha4beta7 (expressed in 293 cells, purified by Fib504 affinity chromatography) (human, UniProt P13612 34-1032; P26010 20-798).
T1 construct: mature; also called immobilized alpha4beta7
T1 sequence (P13612 34-1032, chain 1 of 2): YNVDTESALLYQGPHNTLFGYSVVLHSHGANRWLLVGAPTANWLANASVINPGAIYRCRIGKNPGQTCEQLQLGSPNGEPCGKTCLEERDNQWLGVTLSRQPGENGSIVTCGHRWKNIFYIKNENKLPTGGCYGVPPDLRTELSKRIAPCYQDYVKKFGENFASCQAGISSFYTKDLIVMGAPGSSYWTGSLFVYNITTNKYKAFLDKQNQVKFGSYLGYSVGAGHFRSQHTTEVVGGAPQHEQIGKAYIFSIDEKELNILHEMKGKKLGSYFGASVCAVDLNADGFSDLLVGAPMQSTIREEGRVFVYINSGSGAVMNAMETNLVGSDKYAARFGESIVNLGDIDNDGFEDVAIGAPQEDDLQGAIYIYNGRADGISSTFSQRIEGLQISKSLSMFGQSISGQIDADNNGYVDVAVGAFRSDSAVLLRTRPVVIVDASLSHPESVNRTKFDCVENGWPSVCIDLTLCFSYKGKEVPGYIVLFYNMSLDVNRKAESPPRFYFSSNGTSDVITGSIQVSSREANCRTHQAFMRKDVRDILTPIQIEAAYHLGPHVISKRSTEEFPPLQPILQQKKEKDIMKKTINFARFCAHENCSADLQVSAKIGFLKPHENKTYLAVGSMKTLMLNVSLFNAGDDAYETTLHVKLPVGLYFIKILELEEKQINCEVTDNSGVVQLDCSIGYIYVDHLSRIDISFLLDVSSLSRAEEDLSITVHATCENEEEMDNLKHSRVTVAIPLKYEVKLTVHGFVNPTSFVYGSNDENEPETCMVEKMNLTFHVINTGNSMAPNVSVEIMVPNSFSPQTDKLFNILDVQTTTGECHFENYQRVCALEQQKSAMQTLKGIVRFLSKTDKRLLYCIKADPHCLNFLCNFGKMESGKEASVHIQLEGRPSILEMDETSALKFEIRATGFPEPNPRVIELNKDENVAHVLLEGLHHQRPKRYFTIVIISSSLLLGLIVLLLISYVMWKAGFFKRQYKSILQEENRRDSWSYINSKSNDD
T1 sequence (P26010 20-798, chain 2 of 2): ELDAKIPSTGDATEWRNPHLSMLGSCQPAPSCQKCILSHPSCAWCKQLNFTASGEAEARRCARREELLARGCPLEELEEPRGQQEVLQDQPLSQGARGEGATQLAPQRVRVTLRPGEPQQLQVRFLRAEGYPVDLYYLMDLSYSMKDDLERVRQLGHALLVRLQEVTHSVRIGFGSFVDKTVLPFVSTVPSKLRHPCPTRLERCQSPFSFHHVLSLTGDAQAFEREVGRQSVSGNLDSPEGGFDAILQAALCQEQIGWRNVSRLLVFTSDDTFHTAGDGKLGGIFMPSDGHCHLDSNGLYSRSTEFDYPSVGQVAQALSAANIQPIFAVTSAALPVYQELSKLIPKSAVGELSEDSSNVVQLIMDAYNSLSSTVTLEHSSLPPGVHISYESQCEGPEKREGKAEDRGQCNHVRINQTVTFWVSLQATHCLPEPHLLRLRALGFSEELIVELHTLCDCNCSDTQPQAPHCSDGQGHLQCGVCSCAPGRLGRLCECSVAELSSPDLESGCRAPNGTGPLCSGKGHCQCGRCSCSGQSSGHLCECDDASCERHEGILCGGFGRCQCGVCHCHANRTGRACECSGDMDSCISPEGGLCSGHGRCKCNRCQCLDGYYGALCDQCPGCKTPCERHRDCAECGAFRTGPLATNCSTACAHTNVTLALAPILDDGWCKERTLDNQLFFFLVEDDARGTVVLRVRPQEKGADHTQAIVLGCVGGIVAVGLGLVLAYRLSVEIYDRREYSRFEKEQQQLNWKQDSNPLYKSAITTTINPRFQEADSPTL
In words: BIAcore (column head 'BIAcore Affinity Assay (nM)'); per paragraph 379 the Fab was immobilised on a CM5 chip and human integrin alpha4beta7 injected. The row shows unchanged L1 … and L2 KYASQSIS in the 'Fib504•K RF framework', i.e. the starting Fib504K-RF graft. Here is the method: (§1) Affinity determinations were performed by surface plasmon resonance using a BIAcore™-3000 (Biacore, Piscataway, N.J.). Humanized Fib504 Fab variants were immobilized in 10 mM acetate pH 4.5 (ranging from 250 to 1500 response units (RU)) on a CM5 sensor chip and 2-fold dilutions of human integrin alpha4beta7 (1.5 to 770 nM) in TBSM containing 2% n-octylglucoside were injected. Each sample was analyzed with 5-minute association and 5 to 60-minute dissociation times. After each injection, the chip was regenerated using three 1-minute injections of 8 M urea. Binding response was corrected by subtracting the RU from a blank flow cell. A 1:1 Languir model of simultaneous fitting of kₒₙ and koff was used for kinetics analysis.
(§2) Libraries were generated as before using a soft randomization strategy simultaneously at each of the 6 HVRs for the Fib504K-RL and Fib504K-RF grafts and sorted on immobilized alpha4beta7 for 4 rounds of selection as described above. Enrichment was only observed for the library based on the Fib504K-RF graft. […] Most clones contained the change Y32L; in addition position 31 was frequently changed to D, S, P or N (FIG. 1C). In addition to the starting graft, Fib504K-RF, 3 clones were expressed and purified as Fab protein and further analyzed by Biacore as described above. […]
On the technique in general: In SPR one partner is held on a chip, and binding of the other changes the refractive index at the surface.

Test [5] deals with T1, Full length human integrin alpha4beta7 …. In words: phage binding assay (OD): Fab displayed on phage, immobilised alpha4beta7, albumin as control coat.
Test [6] has the same target. The experiment in a line: phage-displayed Fab on immobilized alpha4beta7.
For test [7] the target is unchanged. The experiment in a line: SPR (BIAcore-3000), Fab immobilized, alpha4beta7 injected. Here is the method:
as §1
Libraries were generated as before using a soft randomization strategy simultaneously at each of the 6 HVRs for the Fib504K-RL and Fib504K-RF grafts and sorted on immobilized alpha4beta7 for 4 rounds of selection as described above. Enrichment was only observed for the library based on the Fib504K-RF graft. […] Most clones contained the change Y32L; in addition position 31 was frequently changed to D, S, P or N (FIG. 1C). In addition to the starting graft, Fib504K-RF, 3 clones were expressed and purified as Fab protein and further analyzed by Biacore as described above. […] The results of the Biacore analysis are shown in Table 3, below, and indicate that selected variation in the HVRs and/or framework regions, disclosed herein, generated antagonist antibodies to alpha4beta7 having improved affinity relative to the starting antibody.

The target is the same in test [8]. The experiment in a line: BIAcore (column head 'BIAcore Affinity Assay (nM)'); per paragraph 379 the Fab was immobilised on a CM5 chip and human integrin alpha4beta7 injected. Here is the method: as §1, §2
Test [9] shares this target. The experiment in a line: SPR (BIAcore), Fab; reference Fib504 Fab. Here is the method: as §1, §2

alphaEbeta7 on alphaEbeta7-transfected 293 cells (human), sequence (P38570 19-1179, chain 1 of 2): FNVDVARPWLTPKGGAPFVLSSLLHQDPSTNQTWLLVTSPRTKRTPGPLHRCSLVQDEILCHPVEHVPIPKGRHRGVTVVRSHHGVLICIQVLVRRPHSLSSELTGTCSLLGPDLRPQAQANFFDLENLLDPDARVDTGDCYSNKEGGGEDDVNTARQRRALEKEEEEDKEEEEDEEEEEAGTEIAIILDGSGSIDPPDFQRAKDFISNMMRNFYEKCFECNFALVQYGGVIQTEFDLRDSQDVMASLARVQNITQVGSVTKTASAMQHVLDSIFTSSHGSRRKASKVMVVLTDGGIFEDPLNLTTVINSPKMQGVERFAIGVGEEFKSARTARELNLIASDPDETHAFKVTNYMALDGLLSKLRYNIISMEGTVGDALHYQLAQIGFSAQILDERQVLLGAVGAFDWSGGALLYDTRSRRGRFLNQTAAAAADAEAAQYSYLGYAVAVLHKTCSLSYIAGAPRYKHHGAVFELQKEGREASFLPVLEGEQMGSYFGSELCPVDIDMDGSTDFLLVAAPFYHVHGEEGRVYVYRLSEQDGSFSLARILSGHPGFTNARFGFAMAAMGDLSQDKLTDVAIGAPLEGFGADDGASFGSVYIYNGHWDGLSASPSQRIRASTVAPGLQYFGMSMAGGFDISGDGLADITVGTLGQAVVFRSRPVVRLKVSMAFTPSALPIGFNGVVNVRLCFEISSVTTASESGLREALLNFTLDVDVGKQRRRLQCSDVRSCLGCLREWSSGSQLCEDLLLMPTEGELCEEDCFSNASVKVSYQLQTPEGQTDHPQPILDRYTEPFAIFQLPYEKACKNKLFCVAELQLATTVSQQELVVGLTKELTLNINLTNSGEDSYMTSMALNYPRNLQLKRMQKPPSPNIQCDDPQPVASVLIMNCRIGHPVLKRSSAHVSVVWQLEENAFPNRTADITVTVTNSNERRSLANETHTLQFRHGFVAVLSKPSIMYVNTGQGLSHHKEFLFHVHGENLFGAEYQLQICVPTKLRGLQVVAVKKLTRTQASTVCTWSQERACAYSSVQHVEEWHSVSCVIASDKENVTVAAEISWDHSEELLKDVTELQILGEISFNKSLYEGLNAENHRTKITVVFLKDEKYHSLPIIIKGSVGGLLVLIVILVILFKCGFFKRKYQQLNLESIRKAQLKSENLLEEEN
alphaEbeta7 on alphaEbeta7-transfected 293 cells (human), sequence (P26010 20-798, chain 2 of 2, further chain): as the sequence (P26010 20-798, chain 2 of 2) above

With HP2/1 (anti-alpha4, control) (antibody), the IC90 in test [1], in test [2] and in test [3] was more than 100 nM throughout.

B1: Fib504K-RF graft (Fib504K graft in the RF acceptor framework), Fab (Fab, V domains shown)
VH: EVQLVESGGGLVQPGGSLRLSCAASGFFITNNYWGWVRQAPGKGLEWVGYISYSGSTSYNPSLKSRFTISRDTSKNTFYLQMNSLRAEDTAVYYCAMTGSSGYFDFWGQGTLVTVSS
VL: DIQMTQSPSSLSASVGDRVTITCRASESVDTYLHWYQQKPGKAPKLLIKYASQSISGVPSRFSGSGSGTDFTLTISSLQPEDFATYYCQQGNSLPNTFGQGTKVEIKR
notes: number not given; also called hu504K-RF graft
Regarding B1, in [4], binding was put at a Kd of 132 nM.

B2: Fib504-RF (Fib504 graft in the RF acceptor framework), Fab displayed on phage (Fab, name in Kabat numbering, V domains shown)
VH: EVQLVESGGGLVQPGGSLRLSCAASGFFITNNYWGWVRQAPGKGLEWVGYISYSGSTSYNPSLKSRFTISRDTSKNTFYLQMNSLRAEDTAVYYCAMTGSSGYFDFWGQGTLVTVSS
VL: DIQMTQSPSSLSASVGDRVTITCRASESVDTYLHWYQQKPGKAPKLLIYYASQSISGVPSRFSGSGSGTDFTLTISSLQPEDFATYYCQQGNSLPNTFGQGTKVEIKR
notes: It is built from the Fib504 graft chains with the RF framework changes; Tested as Fab on phage; also called hu504-RF
B2: the binding result in test [5] was “no binding”.

B3: Fib504 Kgraft (HVR graft that also includes VL position 49K), Fab displayed on phage (Fab, V domains shown)
VH: EVQLVESGGGLVQPGGSLRLSCAASGFFITNNYWGWVRQAPGKGLEWVGYISYSGSTSYNPSLKSRFTISADTSKNTAYLQMNSLRAEDTAVYYCAMTGSSGYFDFWGQGTLVTVSS
VL: DIQMTQSPSSLSASVGDRVTITCRASESVDTYLHWYQQKPGKAPKLLIKYASQSISGVPSRFSGSGSGTDFTLTISSLQPEDFATYYCQQGNSLPNTFGQGTKVEIKR
notes: Tested as Fab on phage; also called hu504 Kgraft; hu504K graft
Regarding B3, the binding result in test [6] is on record as “no binding”.

B4: Variant hu504.5, Fab (Fab, name in Kabat numbering, V domains shown)
VH: EVQLVESGGGLVQPGGSLRLSCAASGFFITNNYWGWVRQAPGKGLEWVGYISYSGSTSYNPSLKSRFTISRDTSKNTFYLQMNSLRAEDTAVYYCAMTGSSGYFDFWGQGTLVTVSS
VL: DIQMTQSPSSLSASVGDRVTITCRASESVDSLLHWYQQKPGKAPKLLIKYASQSISGVPSRFSGSGSGTDFTLTISSLQPEDFATYYCQQGNSLPNTFGQGTKVEIKR
notes: Tested as Fab; also called Variant 504.5
Regarding B4, in [7], the dissociation constant Kd – broadly, the constant that tells how readily two partners part at equilibrium – came to 9 nM.

B5: Fib504 graft (direct HVR graft of rat Fib504 into the human acceptor framework), Fab displayed on phage (Fab, V domains shown)
VH: EVQLVESGGGLVQPGGSLRLSCAASGFFITNNYWGWVRQAPGKGLEWVGYISYSGSTSYNPSLKSRFTISADTSKNTAYLQMNSLRAEDTAVYYCAMTGSSGYFDFWGQGTLVTVSS
VL: DIQMTQSPSSLSASVGDRVTITCRASESVDTYLHWYQQKPGKAPKLLIYYASQSISGVPSRFSGSGSGTDFTLTISSLQPEDFATYYCQQGNSLPNTFGQGTKVEIKR
notes: Tested as monovalent Fab-g3 on phage (VH-CH1 fused to truncated P3); also called hu504 graft; humanized504 graft
As for B5, in test [6], the binding result is given as “no binding”.

B6: Variant hu504.16, Fab (Fab, name in Kabat numbering, V domains shown)
VH: EVQLVESGGGLVQPGGSLRLSCAASGFFITNNYWGWVRQAPGKGLEWVGYISYSGSTSYNPSLKSRFTISRDTSKNTFYLQMNSLRAEDTAVYYCAMTGSSGYFDFWGQGTLVTVSS
VL: DIQMTQSPSSLSASVGDRVTITCRASESVDTLLHWYQQKPGKAPKLLIKYASQSISGVPSRFSGSGSGTDFTLTISSLQPEDFATYYCQQGNSLPNTFGQGTKVEIKR
notes: Clone from the Fib504K-RF library with an HVR-L1 change; Tested as Fab; also called Variant 504.16
With B6, the equilibrium dissociation constant (Kd) turned out to be 23 nM in [7] and 23.4 nM in test [8].

B7: Variant hu504.32, Fab (Fab, V domains shown)
VH: EVQLVESGGGLVQPGGSLRLSCAASGFFITNNYWGWVRQAPGKGLEWVGYISYSGSTSYNPSLKSRFTISRDTSKNTFYLQMNSLRAEDTAVYYCAMTGSSGYFDFWGQGTLVTVSS
VL: DIQMTQSPSSLSASVGDRVTITCRASESVDDLLHWYQQKPGKAPKLLIKYASQSISGVPSRFSGSGSGTDFTLTISSLQPEDFATYYCQQGNSLPNTFGQGTKVEIKR
notes: T31D and Y32L in the light chain of the hu504 Kgraft; Tested as Fab; also called Variant 504.32; humanized variant 504.32
Turning to B7, in [9], the “fold tighter binding relative to the starting rat antibody” value was 3 fold. For the same molecule, the Kd turned out to be 3 nM in test [7] and 3.5 nM in test [8].

B8: chimeric Fib504 Fab (Fab, V domains shown)
VH: EVQLQESGPGLVKPSQSLSLTCSVTGFFITNNYWGWIRKFPGNKMEWMGYISYSGSTSYNPSLKSRISITRDTSKNQFFLQLNSVTTEDTATYYCAMTGSSGYFDFWGPGTMVTVSS
VL: DVVMTQSPATLSVTPGERISLSCRASESVDTYLHWYQQKPNESPRLLIKYASQSISGIPSRFSGSGSGTDFTLSINGVELEDLSIYYCQQGNSLPNTFGAGTKLELKR
notes: Rat Fib504 variable domains in a chimeric Fab; the constant domains are not specified
As to B8, in [7], the equilibrium dissociation constant (Kd) was found to be 11 nM.
